What was measured:
Assay in all cases: cell-based or functional assay
[1] = target: Catalytically active human CD73 (biochemical assay) (human) (UniProt P21589)
[2] = target: Membrane-bound human CD73 (internalisation assay) (human) (UniProt P21589)
[3] = target: Catalytically active mouse CD73 (biochemical assay) (mouse) (UniProt Q61503)
[4] = target: Membrane-bound CD73 in MDA-MB-231 cells (UniProt P21589)
[5] = target: Membrane-bound mouse CD73 (internalisation assay) (mouse) (UniProt Q61503)
[6] = target: Soluble CD73 in MDA-MB-231 cells (UniProt P21589)

% Inhibition of CD73 (biochemical assay), Human [1] [%]	% internalisation of membrane-bound CD73, Human [2] [%]	Human % Inh, n = 1 (receptor internalisation assay) [2] [%]	Human % Inh, n = 2 (receptor internalisation assay) [2] [%]	% Inhibition of CD73 (biochemical assay), Mouse [3] [%]	% Inhibition of CD73 (cell-based assay), Membrane-bound [4] [%]	Max % Act Mean [4] [%]	Max % Act n = 1 [4] [%]	Max % Act n = 2 [4] [%]	% internalisation of membrane-bound CD73, Mouse [5] [%]	Murine % Inh, n = 1 (receptor internalisation assay) [5] [%]	Murine % Inh, n = 2 (receptor internalisation assay) [5] [%]	% Inhibition of CD73 (cell-based assay), soluble [6] [%]	Substance
42.3	58	49.9	66.2	49.1	42	41.8	35.5	48	70.9	62.5	79.4	40	MEDI9447 (antibody)
20	61.7	8.99	61.7	21.3	29.9	31	30	32	7.14	5.18	9.09	10.4	BMS-986179 (antibody)
91.3	47.5	49	46	17.8	68.2	68.8	69.5	68	6.46	5.18	7.74	77.1	IPH53 (antibody)
–	–	–	–	–	–	3.5	–	3.5	–	–	–	–	IgG1K (antibody)

From patent publication US20240117065A1
